Assay results taken from publication PMC10786891, “Massively parallel profiling of RNA-targeting CRISPR-Cas13d”.

T1: EsCas13d, nuclease-dead (Eubacterium siraeum, UniProt B0MS50, R295A;H300A;R849A;H854A)
T1 sequence: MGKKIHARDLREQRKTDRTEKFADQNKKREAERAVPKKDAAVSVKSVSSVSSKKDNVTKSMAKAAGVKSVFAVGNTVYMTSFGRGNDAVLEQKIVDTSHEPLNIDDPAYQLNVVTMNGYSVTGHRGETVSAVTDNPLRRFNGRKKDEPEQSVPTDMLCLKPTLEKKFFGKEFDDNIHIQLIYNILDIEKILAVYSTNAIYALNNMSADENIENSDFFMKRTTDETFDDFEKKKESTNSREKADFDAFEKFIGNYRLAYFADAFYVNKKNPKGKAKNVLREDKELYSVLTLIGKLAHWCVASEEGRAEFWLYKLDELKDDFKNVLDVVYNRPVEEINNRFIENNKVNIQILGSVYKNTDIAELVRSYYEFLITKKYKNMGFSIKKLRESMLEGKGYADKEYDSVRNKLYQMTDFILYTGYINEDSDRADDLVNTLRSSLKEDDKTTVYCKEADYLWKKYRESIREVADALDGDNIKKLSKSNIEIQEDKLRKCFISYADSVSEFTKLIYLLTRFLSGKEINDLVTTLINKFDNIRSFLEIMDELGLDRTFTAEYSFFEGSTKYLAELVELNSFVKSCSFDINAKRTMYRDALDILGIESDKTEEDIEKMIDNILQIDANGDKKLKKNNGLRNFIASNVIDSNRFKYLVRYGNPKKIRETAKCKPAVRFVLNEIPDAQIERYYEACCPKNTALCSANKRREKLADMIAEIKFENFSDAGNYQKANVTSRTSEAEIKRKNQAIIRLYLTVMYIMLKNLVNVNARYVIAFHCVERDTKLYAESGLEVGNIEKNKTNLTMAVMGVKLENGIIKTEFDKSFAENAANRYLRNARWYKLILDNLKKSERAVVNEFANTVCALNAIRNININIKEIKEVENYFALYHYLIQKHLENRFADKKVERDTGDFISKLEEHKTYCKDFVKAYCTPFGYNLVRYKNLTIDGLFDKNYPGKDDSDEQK


These binders were tested against T1, EsCas13d, nuclease-dead (assay: crRNA (strand 1, pre-loaded); Mg2+; 40 mM Tris-HCl pH 7.5, 150 mM NaCl, 6 mM MgCl2, 1 mM DTT, 0.1% Tween-20, 0.2 mg/ml BSA; 25 C; 10 min per concentration, then washed). Conditions: tags: His6-TwinStrep-SUMO cleaved; N-terminal SNAP kept (SNAP-Surface 488); label: 3' end held by stalled T7 RNA polymerase.

Row | Binder | Kd [nM]
1 | target 2 MT 5'PFS UUA 3'PFS ACC (mixed) RNA 1: CACCCGUGCAAAAUUGCAGGGGUCUAAAACCUUCUCCAAAUUGUUUCAUCCU RNA 2: GGGAAUGGAUCCACAUCUACGAAUUCUUAAGGAUGAAACAAUUUGGAGAAGACCAGAUCGGAAGAGCACACGU | 45 ± 14
2 | target 2 MT 5'PFS GGG 3'PFS CGG (mixed) RNA 1: CACCCGUGCAAAAUUGCAGGGGUCUAAAACCUUCUCCAAAUUGUUUCAUCCU RNA 2: GGGAAUGGAUCCACAUCUACGAAUUCGGGAGGAUGAAACAAUUUGGAGAAGCGGAGAUCGGAAGAGCACACGU | 8.5 ± 0.5
3 | target 2 MT 5'PFS GGG 3'PFS CGC (mixed) RNA 1: CACCCGUGCAAAAUUGCAGGGGUCUAAAACCUUCUCCAAAUUGUUUCAUCCU RNA 2: GGGAAUGGAUCCACAUCUACGAAUUCGGGAGGAUGAAACAAUUUGGAGAAGCGCAGAUCGGAAGAGCACACGU | 10.5 ± 0.9
4 | target 2 MT 5'PFS GGG 3'PFS CGU (mixed) RNA 1: CACCCGUGCAAAAUUGCAGGGGUCUAAAACCUUCUCCAAAUUGUUUCAUCCU RNA 2: GGGAAUGGAUCCACAUCUACGAAUUCGGGAGGAUGAAACAAUUUGGAGAAGCGUAGAUCGGAAGAGCACACGU | 9.8 ± 0.7
5 | target 2 MT 5'PFS ACG 3'PFS AUU (mixed) RNA 1: CACCCGUGCAAAAUUGCAGGGGUCUAAAACCUUCUCCAAAUUGUUUCAUCCU RNA 2: GGGAAUGGAUCCACAUCUACGAAUUCACGAGGAUGAAACAAUUUGGAGAAGAUUAGAUCGGAAGAGCACACGU | 5.6 ± 1
6 | target 2 MT 5'PFS ACG 3'PFS AUA (mixed) RNA 1: CACCCGUGCAAAAUUGCAGGGGUCUAAAACCUUCUCCAAAUUGUUUCAUCCU RNA 2: GGGAAUGGAUCCACAUCUACGAAUUCACGAGGAUGAAACAAUUUGGAGAAGAUAAGAUCGGAAGAGCACACGU | 11 ± 4
7 | target 2 MT 5'PFS GCU 3'PFS UAA (mixed) RNA 1: CACCCGUGCAAAAUUGCAGGGGUCUAAAACCUUCUCCAAAUUGUUUCAUCCU RNA 2: GGGAAUGGAUCCACAUCUACGAAUUCGCUAGGAUGAAACAAUUUGGAGAAGUAAAGAUCGGAAGAGCACACGU | 7.8 ± 1.8
8 | target 2 MT 5'PFS CAC 3'PFS UUA (mixed) RNA 1: CACCCGUGCAAAAUUGCAGGGGUCUAAAACCUUCUCCAAAUUGUUUCAUCCU RNA 2: GGGAAUGGAUCCACAUCUACGAAUUCCACAGGAUGAAACAAUUUGGAGAAGUUAAGAUCGGAAGAGCACACGU | 4.4 ± 0.8
9 | target 2 MT 5'PFS GUA 3'PFS CAA (mixed) RNA 1: CACCCGUGCAAAAUUGCAGGGGUCUAAAACCUUCUCCAAAUUGUUUCAUCCU RNA 2: GGGAAUGGAUCCACAUCUACGAAUUCGUAAGGAUGAAACAAUUUGGAGAAGCAAAGAUCGGAAGAGCACACGU | 4.8 ± 0.5
10 | target 2 MT 5'PFS GGG 3'PFS AGG (mixed) RNA 1: CACCCGUGCAAAAUUGCAGGGGUCUAAAACCUUCUCCAAAUUGUUUCAUCCU RNA 2: GGGAAUGGAUCCACAUCUACGAAUUCGGGAGGAUGAAACAAUUUGGAGAAGAGGAGAUCGGAAGAGCACACGU | 7.5 ± 0.5
11 | target 2 MT 5'PFS GGG 3'PFS CGA (mixed) RNA 1: CACCCGUGCAAAAUUGCAGGGGUCUAAAACCUUCUCCAAAUUGUUUCAUCCU RNA 2: GGGAAUGGAUCCACAUCUACGAAUUCGGGAGGAUGAAACAAUUUGGAGAAGCGAAGAUCGGAAGAGCACACGU | 8.2 ± 0.7
12 | target 2 MT 5'PFS UUA 3'PFS ACA (mixed) RNA 1: CACCCGUGCAAAAUUGCAGGGGUCUAAAACCUUCUCCAAAUUGUUUCAUCCU RNA 2: GGGAAUGGAUCCACAUCUACGAAUUCUUAAGGAUGAAACAAUUUGGAGAAGACAAGAUCGGAAGAGCACACGU | 37 ± 7
13 | target 2 MT 5'PFS GUG 3'PFS AGG (mixed) RNA 1: CACCCGUGCAAAAUUGCAGGGGUCUAAAACCUUCUCCAAAUUGUUUCAUCCU RNA 2: GGGAAUGGAUCCACAUCUACGAAUUCGUGAGGAUGAAACAAUUUGGAGAAGAGGAGAUCGGAAGAGCACACGU | 11 ± 0.7
14 | target 2 MT 5'PFS GUG 3'PFS AGU (mixed) RNA 1: CACCCGUGCAAAAUUGCAGGGGUCUAAAACCUUCUCCAAAUUGUUUCAUCCU RNA 2: GGGAAUGGAUCCACAUCUACGAAUUCGUGAGGAUGAAACAAUUUGGAGAAGAGUAGAUCGGAAGAGCACACGU | 12.3 ± 1.1
15 | target 2 MT 5'PFS CAC 3'PFS UUC (mixed) RNA 1: CACCCGUGCAAAAUUGCAGGGGUCUAAAACCUUCUCCAAAUUGUUUCAUCCU RNA 2: GGGAAUGGAUCCACAUCUACGAAUUCCACAGGAUGAAACAAUUUGGAGAAGUUCAGAUCGGAAGAGCACACGU | 5.2 ± 1.2
16 | target 2 MT 5'PFS GAG 3'PFS CAU (mixed) RNA 1: CACCCGUGCAAAAUUGCAGGGGUCUAAAACCUUCUCCAAAUUGUUUCAUCCU RNA 2: GGGAAUGGAUCCACAUCUACGAAUUCGAGAGGAUGAAACAAUUUGGAGAAGCAUAGAUCGGAAGAGCACACGU | 5.14 ± 0.34
17 | target 2 MT 5'PFS GUG 3'PFS AGA (mixed) RNA 1: CACCCGUGCAAAAUUGCAGGGGUCUAAAACCUUCUCCAAAUUGUUUCAUCCU RNA 2: GGGAAUGGAUCCACAUCUACGAAUUCGUGAGGAUGAAACAAUUUGGAGAAGAGAAGAUCGGAAGAGCACACGU | 10.3 ± 1.8
18 | target 2 MT 5'PFS GAG 3'PFS CAC (mixed) RNA 1: CACCCGUGCAAAAUUGCAGGGGUCUAAAACCUUCUCCAAAUUGUUUCAUCCU RNA 2: GGGAAUGGAUCCACAUCUACGAAUUCGAGAGGAUGAAACAAUUUGGAGAAGCACAGAUCGGAAGAGCACACGU | 5.1 ± 0.5
19 | target 2 MT 5'PFS UUA 3'PFS ACG (mixed) RNA 1: CACCCGUGCAAAAUUGCAGGGGUCUAAAACCUUCUCCAAAUUGUUUCAUCCU RNA 2: GGGAAUGGAUCCACAUCUACGAAUUCUUAAGGAUGAAACAAUUUGGAGAAGACGAGAUCGGAAGAGCACACGU | 81 ± 19
20 | target 2 MT 5'PFS GAG 3'PFS CAA (mixed) RNA 1: CACCCGUGCAAAAUUGCAGGGGUCUAAAACCUUCUCCAAAUUGUUUCAUCCU RNA 2: GGGAAUGGAUCCACAUCUACGAAUUCGAGAGGAUGAAACAAUUUGGAGAAGCAAAGAUCGGAAGAGCACACGU | 4.9 ± 0.7
21 | target 2 MT 5'PFS UUA 3'PFS ACU (mixed) RNA 1: CACCCGUGCAAAAUUGCAGGGGUCUAAAACCUUCUCCAAAUUGUUUCAUCCU RNA 2: GGGAAUGGAUCCACAUCUACGAAUUCUUAAGGAUGAAACAAUUUGGAGAAGACUAGAUCGGAAGAGCACACGU | 32 ± 4
22 | target 2 MT 5'PFS GAG 3'PFS CAG (mixed) RNA 1: CACCCGUGCAAAAUUGCAGGGGUCUAAAACCUUCUCCAAAUUGUUUCAUCCU RNA 2: GGGAAUGGAUCCACAUCUACGAAUUCGAGAGGAUGAAACAAUUUGGAGAAGCAGAGAUCGGAAGAGCACACGU | 5.31 ± 0.29
23 | target 2 MT 5'PFS GCU 3'PFS UAC (mixed) RNA 1: CACCCGUGCAAAAUUGCAGGGGUCUAAAACCUUCUCCAAAUUGUUUCAUCCU RNA 2: GGGAAUGGAUCCACAUCUACGAAUUCGCUAGGAUGAAACAAUUUGGAGAAGUACAGAUCGGAAGAGCACACGU | 13.2 ± 2.4
24 | target 2 MT 5'PFS CAC 3'PFS UUG (mixed) RNA 1: CACCCGUGCAAAAUUGCAGGGGUCUAAAACCUUCUCCAAAUUGUUUCAUCCU RNA 2: GGGAAUGGAUCCACAUCUACGAAUUCCACAGGAUGAAACAAUUUGGAGAAGUUGAGAUCGGAAGAGCACACGU | 2.8 ± 0.5
25 | target 2 MT 5'PFS GAU 3'PFS AUU (mixed) RNA 1: CACCCGUGCAAAAUUGCAGGGGUCUAAAACCUUCUCCAAAUUGUUUCAUCCU RNA 2: GGGAAUGGAUCCACAUCUACGAAUUCGAUAGGAUGAAACAAUUUGGAGAAGAUUAGAUCGGAAGAGCACACGU | 8.3 ± 0.8
26 | target 2 MT 5'PFS GUG 3'PFS AGC (mixed) RNA 1: CACCCGUGCAAAAUUGCAGGGGUCUAAAACCUUCUCCAAAUUGUUUCAUCCU RNA 2: GGGAAUGGAUCCACAUCUACGAAUUCGUGAGGAUGAAACAAUUUGGAGAAGAGCAGAUCGGAAGAGCACACGU | 7.2 ± 0.4
27 | target 1 insC 3' of 12,insA 3' of 10 (mixed) RNA 1: CACCCGUGCAAAAAUGCAGGGGUCUAAAACUGAGCGGAUAACCUCUCUAUGG RNA 2: GGGAAUGGAUCCACAUCUACGAAUUCGUACCAUAGAGAGGCUUAAUCCGCUCACCGAGAUCGGAAGAGCACACGU | 11.7 ± 1
28 | target 1 insG 3' of 22,insU 3' of 22 (mixed) RNA 1: CACCCGUGCAAAAAUGCAGGGGUCUAAAACUGAGCGGAUAACCUCUCUAUGG RNA 2: GGGAAUGGAUCCACAUCUACGAAUUCGUACGUCAUAGAGAGGUUAUCCGCUCACCGAGAUCGGAAGAGCACACGU | 23.5 ± 2.9
